# Results reported in patent US12077763B2, “RNA-based control of powdery mildew” (Greenlight Biosciences, Inc., priority 2021, dated 2024).
# B1: GS3314 (nucleic acid)
# sense: CGAGGUUCAUGGUAGUUCCCUAUCUAAGGAUGAUCUUCGAGAUUUGAGAAAUAUUGACCUCUCAGACUUUUCCUACCGACAGCCCUAUAUGCAAGAAAGAAGAGACGCCGUUGGCCAAAGAGGAAACAUAAGUAAUAGAGGAAGAGGAAGGGUGAGAGGUAUAGGAAGGGAUCCAAACGUGGACCUUCCCCAACCCUUAAGUAGUCAACCUUUAAGGAGGGACGAACAAGCAUUUCAAAGGCAACUAGCAGUCCAAUCCUCUCAGUCUGUCACGACAAGGAACUCCGUCCAUCAAAAUACAACACCAGCAUCGCAAAUAUCAAAUAAUACUCCAAAAUCACAGUCUCAAGUAACAAGAUCCCCCCAGACUUCUAAUAACCUUGAAAGUGCAAACAUU
# antisense: AAUGUUUGCACUUUCAAGGUUAUUAGAAGUCUGGGGGGAUCUUGUUACUUGAGACUGUGAUUUUGGAGUAUUAUUUGAUAUUUGCGAUGCUGGUGUUGUAUUUUGAUGGACGGAGUUCCUUGUCGUGACAGACUGAGAGGAUUGGACUGCUAGUUGCCUUUGAAAUGCUUGUUCGUCCCUCCUUAAAGGUUGACUACUUAAGGGUUGGGGAAGGUCCACGUUUGGAUCCCUUCCUAUACCUCUCACCCUUCCUCUUCCUCUAUUACUUAUGUUUCCUCUUUGGCCAACGGCGUCUCUUCUUUCUUGCAUAUAGGGCUGUCGGUAGGAAAAGUCUGAGAGGUCAAUAUUUCUCAAAUCUCGAAGAUCAUCCUUAGAUAGGGAACUACCAUGAACCUCG
# B2: GS3303 (nucleic acid)
# sense: UUACCCUACACCUACUGGAGGUUACUCUGAAGAGCCCUACCACUAUAAAGGUGUCAAGCUAGGUCAUUGAGAGGAUUGAGUUACGAAAUUUGAUUGCAGCCACGCCUUCGACUUCAACCGAGAAGAGUUCCAAUCUCCCUCUUAGACGCAGGACUACUCUCACGAUACUUCUGUCUCUACUUCUUCUCAUGAGCACGCUAAUACUCUCUAAGCCUCCGUUGAUGUGUUGAAAGACAGGCACCUCAGUUUUGAUUCUAUUCAGCUCGGCAAACAUGUUGUGUACAUUCAUAGACUGAAUUU
# antisense: AAAUUCAGUCUAUGAAUGUACACAACAUGUUUGCCGAGCUGAAUAGAAUCAAAACUGAGGUGCCUGUCUUUCAACACAUCAACGGAGGCUUAGAGAGUAUUAGCGUGCUCAUGAGAAGAAGUAGAGACAGAAGUAUCGUGAGAGUAGUCCUGCGUCUAAGAGGGAGAUUGGAACUCUUCUCGGUUGAAGUCGAAGGCGUGGCUGCAAUCAAAUUUCGUAACUCAAUCCUCUCAAUGACCUAGCUUGACACCUUUAUAGUGGUAGGGCUCUUCAGAGUAACCUCCAGUAGGUGUAGGGUAA
# B3: ES52: dsRNA trigger SEQ ID NO 113; gene target Hypotethical effector (nucleic acid)
# DNA: ATGTTCAAAAAATTTATTTTCCTCTCAAGCCAGGCCTTAATGGTACTTTCGAATCCTCTTTATATTGGTGATAATCATCTTCCGAGCGACCAAAATAATCCGTTCTTAATATCCTATGATTGGAAAGCTGGCTTTACAAGCGAATTCGAACTTCATGATTCCTGCAATGCAACACAGAAAAAACAGCTGCAAGACGGCCTCTCTGACGCTGTGACACTTGCTAGGCATGCTAAAGAACATATTCTTGTGAAGGGAACTGAATCACCCATATATAAGAAATATTTCGGTCAAGGTCCTACAGGATCGGTCCTGGGATGGTATGACAAAATTGCTTCTTCTGACCGAAAAGACATCCTTTTCCGTTGTGATGACCCCGATAAGAATTGCCAAACTCAACCTCAATGGGCTGGACATCACCGCGGAAAAAATGCGTCATTAGAGACAGTGATCTGCGAGCTTTCATTTCTCACTCGGCTTCCACTTGAAGCTC
# B4: GS3311 (nucleic acid)
# sense: CUUCUCGGUAAUUCCGCAACAUUUUUAACCAUGACAUUCCAUUUCGUACAUGCUCUUGAUAUUCCGAUAACGUCAGCCUCUUGAAAUGCAUCACUUCCUAUGGCAGUAGUGGGCACUUGGCCGCAAAAAACUACUAGUGGUGUACCGUCAGAUAGAGCGUCCUGCAUCGGUGUUAUGACAUUUGUUGCACCAGGGCCAGAAGUAACUAGAAUCACCCCAGGAAGUCCACUAGCUCUGGCAUAGCCUUCAGCCAUAUGUCCAGCACCCUGUUCAUGUUUCGGUAGAAUAAAAUCGAAGUGCCUUGAAUUAUAAAUAGCGUCGAAAACGGGAAGAAUUGCUCCACCAGGAUAACCGAAAAUAUGUUUUACACCUUGCCGUAACAUCAUUUCGUGAAAUAU
# antisense: AUAUUUCACGAAAUGAUGUUACGGCAAGGUGUAAAACAUAUUUUCGGUUAUCCUGGUGGAGCAAUUCUUCCCGUUUUCGACGCUAUUUAUAAUUCAAGGCACUUCGAUUUUAUUCUACCGAAACAUGAACAGGGUGCUGGACAUAUGGCUGAAGGCUAUGCCAGAGCUAGUGGACUUCCUGGGGUGAUUCUAGUUACUUCUGGCCCUGGUGCAACAAAUGUCAUAACACCGAUGCAGGACGCUCUAUCUGACGGUACACCACUAGUAGUUUUUUGCGGCCAAGUGCCCACUACUGCCAUAGGAAGUGAUGCAUUUCAAGAGGCUGACGUUAUCGGAAUAUCAAGAGCAUGUACGAAAUGGAAUGUCAUGGUUAAAAAUGUUGCGGAAUUACCGAGAAG
# B5: GS3312 (nucleic acid)
# sense: CUGCUGGUAGUGACAAGGGCACAGAACACGUCUGGGAAAUAAGCCAGAGCGUGGGCAUGAUAAUUGGUGGAAUUUUAGAAAAUUUGCUCAUGCUUAUGGGAAAAGUUCCCAGCUUAACGAGGAGGCAAGUACGAUAUAGCUGUAUGACAAGAUACUAUGACUGUAGUAAAGCUAAGAGGCUACUUGGAUAUACACCAGAAGUCCACCUGUGGGAAGGCAUAGAGAGGUCAGUUGCUUGGUUCAAAAAUCAGAGUUAAUUAUCGAAGCCCGAAUGAAUACUUCAUAUUACUAAACUUGCCCGAAUUAAAAUUCUGGCUAGCUUAGUUAUCAAAUAAAAAUUGAUAGUUAAGUUGAUCUUUCAUUGAUGAAUAUAUAAGUACUUAACCUUAUCAUUCAAU
# antisense: AUUGAAUGAUAAGGUUAAGUACUUAUAUAUUCAUCAAUGAAAGAUCAACUUAACUAUCAAUUUUUAUUUGAUAACUAAGCUAGCCAGAAUUUUAAUUCGGGCAAGUUUAGUAAUAUGAAGUAUUCAUUCGGGCUUCGAUAAUUAACUCUGAUUUUUGAACCAAGCAACUGACCUCUCUAUGCCUUCCCACAGGUGGACUUCUGGUGUAUAUCCAAGUAGCCUCUUAGCUUUACUACAGUCAUAGUAUCUUGUCAUACAGCUAUAUCGUACUUGCCUCCUCGUUAAGCUGGGAACUUUUCCCAUAAGCAUGAGCAAAUUUUCUAAAAUUCCACCAAUUAUCAUGCCCACGCUCUGGCUUAUUUCCCAGACGUGUUCUGUGCCCUUGUCACUACCAGCAG
# B6: GS3304 (nucleic acid)
# sense: GUUACGCAUCGCCAACAGGGACCAGUUACCCUACACCUACUGGAGGUUACUCUGAAGAGCCCUACCACUAUAAAGGUGUCAAGCUAGGUCAUUGAGAGGAUUGAGUUACGAAAUUUGAUUGCAGCCACGCCUUCGACUUCAACCGAGAAGAGUUCCAAUCUCCCUCUUAGACGCAGGACUACUCUCACGAUACUUCUGUCUCUACUUCUUCUCAUGAGCACGCUAAUACUCUCUAAGCCUCCGUUGAUGUGUUGAAAGACAGGCACCUCAGUUUUGAUUCUAUUCAGCUCGGCAAACAUGUUGUGUACAUUCAUAGACUGAAUUUCUUUUUUAUUAUUUUUUUCCAAAUA
# antisense: UAUUUGGAAAAAAAUAAUAAAAAAGAAAUUCAGUCUAUGAAUGUACACAACAUGUUUGCCGAGCUGAAUAGAAUCAAAACUGAGGUGCCUGUCUUUCAACACAUCAACGGAGGCUUAGAGAGUAUUAGCGUGCUCAUGAGAAGAAGUAGAGACAGAAGUAUCGUGAGAGUAGUCCUGCGUCUAAGAGGGAGAUUGGAACUCUUCUCGGUUGAAGUCGAAGGCGUGGCUGCAAUCAAAUUUCGUAACUCAAUCCUCUCAAUGACCUAGCUUGACACCUUUAUAGUGGUAGGGCUCUUCAGAGUAACCUCCAGUAGGUGUAGGGUAACUGGUCCCUGUUGGCGAUGCGUAAC
# B7: GS3313 (nucleic acid)
# sense: AUCGUGAAUGGAGCUGUAACUGAAACAACAGCUUUACUAAACGAAAAAUGGGACAAAAUAUUUUACACUGGCAAUACCCAAGUAGGUGUAAUAAUUGCCAAAAAAGCUGCAGAAACUCUUACACCAGUUUGCUUAGAGCUCGGGGGAAUCAAUCCGGCAAUCAUUACGAAAAAUGCAGACCCAUACCUUGCUGCUCGUCGGCUAUUAUGGGGUAAACUAAUGAAUGCUGGACAAGUUUGCAUCAGUCAAAAUUAUAUUCUUGUCGAACAAGAAGUUUUACCAAUUUUCGUAGAGCAUUUGAAAAACACUCUAAAUGAAUUCUAUCCAAAUGGUAUAAGAAAUAGUCCAGAUUUUGGAAGGAUAGUCAAUCAGCGUCAUUUUUCUAGAAUUAAAAAAAU
# antisense: AUUUUUUUAAUUCUAGAAAAAUGACGCUGAUUGACUAUCCUUCCAAAAUCUGGACUAUUUCUUAUACCAUUUGGAUAGAAUUCAUUUAGAGUGUUUUUCAAAUGCUCUACGAAAAUUGGUAAAACUUCUUGUUCGACAAGAAUAUAAUUUUGACUGAUGCAAACUUGUCCAGCAUUCAUUAGUUUACCCCAUAAUAGCCGACGAGCAGCAAGGUAUGGGUCUGCAUUUUUCGUAAUGAUUGCCGGAUUGAUUCCCCCGAGCUCUAAGCAAACUGGUGUAAGAGUUUCUGCAGCUUUUUUGGCAAUUAUUACACCUACUUGGGUAUUGCCAGUGUAAAAUAUUUUGUCCCAUUUUUCGUUUAGUAAAGCUGUUGUUUCAGUUACAGCUCCAUUCACGAU
# B8: GS3310 (nucleic acid)
# sense: CGUCGACCUCAAAAGCAGAGAAGUUGGGCGAGUUGAUUAUUGCUUCUACGGAGAAAGCCUGUAUAACUGUAGGUUCGUAGCUUUGAGCAUUCAAAAAUUUGUUGUAAACGAUUUUAGUAGAUGAGUAUUCACUUGGCAAAUGAGAGAUUUGAUCUGCUAUUGUUUGAGCGUCUGCAAAGGUUGGAAUAUCUUUCCCUACGCCAGAGAAACUUAAAACAAUAUUUUUACUACUUGACCGACUCAAUUGUGCCUUAGCCUUCUCUCCCAAUACCACAAUAUCGGCAUUGGGGUUUUCAGAGAGCAUUUUUCGAACGUGUUUACUUAAGCCUGAAUGAAUACCGCCGCACAAUCCUUUAUCUGAGCUUGCAACUACAAUCAAGUACUUUUGGUCAUCUUUU
# antisense: AAAAGAUGACCAAAAGUACUUGAUUGUAGUUGCAAGCUCAGAUAAAGGAUUGUGCGGCGGUAUUCAUUCAGGCUUAAGUAAACACGUUCGAAAAAUGCUCUCUGAAAACCCCAAUGCCGAUAUUGUGGUAUUGGGAGAGAAGGCUAAGGCACAAUUGAGUCGGUCAAGUAGUAAAAAUAUUGUUUUAAGUUUCUCUGGCGUAGGGAAAGAUAUUCCAACCUUUGCAGACGCUCAAACAAUAGCAGAUCAAAUCUCUCAUUUGCCAAGUGAAUACUCAUCUACUAAAAUCGUUUACAACAAAUUUUUGAAUGCUCAAAGCUACGAACCUACAGUUAUACAGGCUUUCUCCGUAGAAGCAAUAAUCAACUCGCCCAACUUCUCUGCUUUUGAGGUCGACG
# System: E. necator
# Assay: Leaf disc assay, dry inoculum (settling tower), decrease in disease severity / hyphal growth (Example 2)
# Details: decrease in disease severity (hyphal growth) relative to untreated control, value ± SE; for % decrease =/− SE TP1: time point 1 (untreated control hyphal growth ≥50%); for % decrease =/− SE TP2: time point 2
Molecule,% decrease =/− SE TP1,% decrease =/− SE TP2
B1,17 ± 8%,12 ± 8%
B2,35 ± 5%,15 ± 9%
B3,6 ± 1%,6 ± 2%
B4,29 ± 7%,24 ± 7%
B5,13 ± 4%,19 ± 6%
B6,,6 ± 7%
B7,9 ± 9%,13 ± 9%
B8,22 ± 8%,11 ± 8%
